In article PMC11081419 one finds Kd data, which are given here for one substance.

The experiment concerns the target CCL18 (human) (UniProt P55774). The experiment can be described thus: SPR. The note with it: domain or fragment.

EVA‐ACA1001(ΔN), sequence (A0A023FFD0 29-136, stated change not applied): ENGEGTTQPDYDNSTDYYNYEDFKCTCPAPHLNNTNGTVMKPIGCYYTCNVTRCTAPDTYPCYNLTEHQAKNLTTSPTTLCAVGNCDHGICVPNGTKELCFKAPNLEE
CCL18 (human), sequence (P55774 21-89): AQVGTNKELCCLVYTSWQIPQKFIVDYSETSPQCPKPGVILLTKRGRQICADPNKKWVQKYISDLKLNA

Substance “EVA‐ACA1001(ΔN) (from UniProt A0A023FFD0)” displayed a Kd below 0.1 nM.
